Residue numbers refer to the chain shown, from its start. Names may count otherwise. Marks after values point to notes of the source that are not given here.
Assays:
[1] = target: T1, bovine pancreatic trypsin (Bos taurus, UniProt P00760); experiment: Shake flask screen: trypsin inhibition after growth, 2-mercaptoethanol activation and acid/heat treatment; type: biochemical; conditions: for BBIt-AV yield after acid/heat treatment relative to unmodified BBIt-AV: activated with 2-mercaptoethanol
T1 construct: purchased Worthington (Worthington Biochemical Corp.)
T1 sequence (P00760 24-246): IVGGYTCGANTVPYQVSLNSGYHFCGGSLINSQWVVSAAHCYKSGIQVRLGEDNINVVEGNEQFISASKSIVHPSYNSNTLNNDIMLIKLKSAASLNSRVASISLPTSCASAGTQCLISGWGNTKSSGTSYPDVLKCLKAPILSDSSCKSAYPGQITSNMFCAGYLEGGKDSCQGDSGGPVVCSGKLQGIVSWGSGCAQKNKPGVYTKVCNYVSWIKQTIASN
Protocol: To increase expression, the gene copy of the selected clones was amplified by sequentially streaking colonies on Luria agar plates with 25 μg/ml chloramphenicol until the growth rate was similar to growth on Luria agar plates without chloramphenicol. Cultures of the selected variants and controls were grown in 3 ml Luria broth with 25 μg/ml chloramphenicol in 15 ml tubes for ˜10 h. These cultures (30 μl) were then used to inoculate 30 ml of MBD medium in 250 ml baffled shake flasks and grown at 37° C. and 225 rpm for ˜60 h.
For selection of the variants with the best yields, the culture broths were processed as follows. The broth was first activated by mixing 20 ml of broth with 20 ml of 0.25 M glycine buffer (pH 9.3) and the pH was adjusted to 9.0 with 50% NaOH. Then, 2-mercaptoethanol was added to the diluted cultures to a final concentration of 2 mM and the cultures were incubated overnight at room temperature with gentle shaking. The BBIt-AV moiety was then cleaved from the fusion protein by acid/heat treatment, which was accomplished by first adjusting the pH of the activated broth to pH 1.9-2.0 with sulfuric acid, and followed by incubation at 60° C. for 16 hours, with shaking. The BBIt-AV-BCE fusion protein and the BCE catalytic domain are not soluble at pH 2, whereas the free BBI species is soluble. After the cleavage reaction, the insoluble material was removed by centrifugation (5 min. at 3,000 rpm) and the supernatant was analyzed for trypsin inhibitory activity as described above. The BBI activity was also determined for the starting material and for the samples taken after activation. The BCE activity of the starting material was also determined as described above. The BBIt-AV:BCE activity ratios were then calculated for each step in process. The modified BBIt-AVs produced at the highest yields following the acid/heat treatment were selected for further study.

[2] = target: T1, bovine pancreatic trypsin; experiment: BBIt-AV:BCE activity ratio, microtiter plate screens (primary, quadruplicate secondary); type: biochemical; conditions: single substitution in BBIt-AV, in the presence of reducing agent
Protocol: The cultures in each master plate were thawed and a pin replicator was used to inoculate a new sterile microtiter plate containing 150 μl of Luria broth with 5 μg/ml chloramphenicol in each well. The plates were grown for ˜10 hrs in a humidified and aerated box as described above. For controls, the cultures in two wells were replaced with BBI and BBI-AV cultures that had been grown concurrently in 15 ml culture tubes (5 ml of Luria broth with 5 μg/ml chloramphenicol). After the cultures were grown, the plate was used to inoculate two duplicate 96-well filter plates (Millipore, MSGV2210) containing 150 μl of MBD medium (Vogtentanz et al., 2007) with 5 μg/ml chloramphenicol in each well by using a pin replicator. The duplicate plates were grown for ˜14 hours (as above, with plastic spacers placed between the stacked plates to allow for efficient air flow around the plates) and then 2-mecaptoethanol was added to each well in one of the plates to a final concentration of 2 mM. The plates were then grown for an additional ˜46 hours. The 96-well filter plates containing the culture broth (with or without added 2-mecaptoethanol) were then assayed for BBI and BCE activity.
Libraries were analyzed using dilutions of cultures grown in 96-well plates. Typically, the culture broth from each well was diluted (200 fold) in Assay Buffer (100 mM Tris pH 8.6, 0.005% Tween 80) and transferred to a second microtiter plate (CoStar 9017, Corning, Inc., Corning, N.Y.). Then, 20 μl of the diluted samples were transferred to a third microtiter plate. A standard curve was created by adding 20, 10, 5 or 2.5 μl of the diluted sBBI (SEQ ID NO:13) control culture to empty wells. Then, 80 μL of 50 ng/ml trypsin (bovine pancreatic trypsin, Worthington Biochemical Corp., Lakewood, N.J.) (prepared from a 1 mg/mL stock solution diluted into Assay Buffer) was added to each well of the plate. The reactions were mixed and incubated 15 min at room temperature. After the incubation, 100 μL of 0.5 mg/ml trypsin substrate (succinyl-Ala-Ala-Pro-Arg-para-nitroanilide, Bachem Bioscience, Inc., King of Prussia, Pa.), diluted in Assay Buffer from a 100 mg/ml solution in DMSO, was added to each well, mixed, and the absorbance at 405 nm was monitored for 15 min, with 1 time point recorded every 12 sec using a Spectra Max 250 (Molecular Devices). The data points were used to determine the rate for each reaction. The standard curve was generated by plotting the reaction rate versus the BBI volume and was fitted to a four-parameter equation. All data fitting was done using software supplied by the manufacturer (Molecular Devices Corp., Sunnyvale, Calif.). The activity of each BBIt-AV variant was calculated from the standard curve. Thus, the activities of all modified variant proteins were determined relative to the activity in the sBBI control (BBI-WT) culture.
The concentration of BCE was determined by an activity assay using purified BCE as a standard as described above and by (Vogtentanz et al. 2007). For the analysis of libraries grown in 96-well microtiter plates, 20 μl of culture broth were transferred to each well of a new microtiter plate. A standard curve was created by adding 20, 10, 5 or 2.5 μl of the diluted BBI-WT control culture to these empty wells. Then, 180 μl of the BCE substrate (0.25 μg/ml in Assay Buffer), 4-nitrophenyl β-D-cellobioside (Sigma, St. Louis, Mo.), was added to the plate. The plate was mixed and the absorbance at 405 nm monitored for 15 min, with 1 time point recorded every 12 s using a Spectra Max 250 (Molecular Devices Corp., Sunnyvale, Calif.). The data points were used to determine the rate for each reaction. The standard curve was generated by plotting rate versus culture volume and was fit to a quadratic curve. The BCE concentration in each variant culture was determined relative to the standard control culture. […]

B1: M27A: BBIt-AV (SEQ ID NO:187) with single substitution M27A (protein)
chain: DDESSKPCCDQCACTKSNPPQCRCSDARLNSCHSACKSCACYNLYGWTCFCVDITDFCYEPCKPSE
modifications: synthetic BBIt-AV sequence
[1]
  yield after acid/heat treatment, better than V52L: about 40%
[1]; single substitutions in BBIt-AV
  activation level (BBIt-AV:BCE activity ratio after reducing agent): activate to similar levels

B2: I54T: BBIt-AV (SEQ ID NO:187) with single substitution I54T (protein)
chain: B1 chain with A27M, I54T
modifications: synthetic BBIt-AV sequence
[2]
  relative activity of the amino acid substitution (BBI:BCE activity ratio vs BBIt-AV), amino acid present in BBIsb3-AV: T (−)****

B3: E60K: BBIt-AV (SEQ ID NO:187) with single substitution E60K (protein)
chain: B1 chain with A27M, E60K
modifications: synthetic BBIt-AV sequence
[2]
  relative activity of the amino acid substitution (BBI:BCE activity ratio vs BBIt-AV), amino acid present in BBIsb3-AV: K (+/−)
  relative activity of the amino acid substitution (BBI:BCE activity ratio vs BBIt-AV), amino acid present in BBItc-AV: K (+/−)

B4: S38N: BBIt-AV (SEQ ID NO:187) with single substitution S38N (protein)
chain: B1 chain with A27M, S38N
modifications: synthetic BBIt-AV sequence
[1]
  BBIt-AV yield after acid/heat treatment relative to unmodified BBIt-AV: improved yields after acid/heat treatment

B5: T55N: BBIt-AV (SEQ ID NO:187) with single substitution T55N (protein)
chain: B1 chain with A27M, T55N
modifications: synthetic BBIt-AV sequence
[2]
  relative activity of the amino acid substitution (BBI:BCE activity ratio vs BBIt-AV), amino acid present in BBIsb3-AV: N (+/−)

B6: T55K: BBIt-AV (SEQ ID NO:187) with single substitution T55K (protein)
chain: B1 chain with A27M, T55K
modifications: synthetic BBIt-AV sequence
[2]
  relative activity of the amino acid substitution (BBI:BCE activity ratio vs BBIt-AV), amino acid present in BBIdb-AV: K (−)

B7: Q11G: BBIt-AV (SEQ ID NO:187) with single substitution Q11G (protein)
chain: B1 chain with Q11G, A27M
modifications: synthetic BBIt-AV sequence
[1]
  BBIt-AV yield after acid/heat treatment relative to unmodified BBIt-AV: improved yields after acid/heat treatment

B8: S4V: BBIt-AV (SEQ ID NO:187) with single substitution S4V (protein)
chain: B1 chain with S4V, A27M
modifications: synthetic BBIt-AV sequence
[1]
  BBIt-AV yield after acid/heat treatment relative to unmodified BBIt-AV: improved yields after acid/heat treatment

B9: I54M: BBIt-AV (SEQ ID NO:187) with single substitution I54M (protein)
chain: B1 chain with A27M, I54M
modifications: synthetic BBIt-AV sequence
[2]
  relative activity of the amino acid substitution (BBI:BCE activity ratio vs BBIt-AV), amino acid present in BBIdb-AV: M (−)

B10: S65E: BBIt-AV (SEQ ID NO:187) with single substitution S65E (protein)
chain: B1 chain with A27M, S65E
modifications: synthetic BBIt-AV sequence
[1]
  BBIt-AV yield after acid/heat treatment relative to unmodified BBIt-AV: improved yields after acid/heat treatment

B11: S5P: BBIt-AV (SEQ ID NO:187) with single substitution S5P (protein)
chain: B1 chain with S5P, A27M
modifications: synthetic BBIt-AV sequence
[1]
  BBIt-AV yield after acid/heat treatment relative to unmodified BBIt-AV: improved yields after acid/heat treatment

B12: BBIt-AV-A13I-M27R-L29P-A40K-F50T-V52A: modified variant BBPI, SEQ ID NO:619 (protein)
chain: DPDDESSKPCCDQCICTKSNPPQCRCSDRRPNSCHSACKSCKCYNLYGWTCTCADITDFCYEPCKPSE
modifications: synthetic BBPI variant
[1]
  yield after acid/heat treatment relative to BBIt-AV-A13I-L29P-A40K-F50T-V52A (SEQ ID NO:601): somewhat less

B13: BBIt-AV-A13I-L29P-A40K-F50T-V52T: modified variant BBPI, SEQ ID NO:625 (protein)
chain: B12 chain with R29M, A54T
modifications: synthetic BBPI variant
[1]
  yield after acid/heat treatment relative to BBIt-AV-A13I-L29P-A40K-F50T-V52A (SEQ ID NO:601): somewhat less

B14: BBIt-AV-A13I-L29P-S31A-A40K-F50T-V52A: modified variant BBPI, SEQ ID NO:621 (protein)
chain: B12 chain with R29M, S33A
modifications: synthetic BBPI variant
[1]
  yield after acid/heat treatment relative to BBIt-AV-A13I-L29P-A40K-F50T-V52A (SEQ ID NO:601): somewhat less

B15: BBIt-AV-S4V-A13I-L29P-A40K-F50T-V52A: modified variant BBPI, SEQ ID NO:612 (protein)
chain: B12 chain with S6V, R29M
modifications: synthetic BBPI variant
[1]
  yield after acid/heat treatment relative to BBIt-AV-A13I-L29P-A40K-F50T-V52A (SEQ ID NO:601): significantly lower yields

B16: 4D13BBIt-AV: BBIt-AV with 13 amino acid 4D13 insert (SEQ ID NO:389) at the N-terminus, SEQ ID NO:390 (protein)
chain: DDEPSKPCCDPDPDDESSKPCCDQCACTKSNPPQCRCSDMRLNSCHSACKSCACYNLYGWTCFCVDITDFCYEPCKPSE
modifications: synthetic BBI sequence
[1]; relative to unmodified BBIt-AV
  BBIt-AV:BCE activity ratio after acid/heat treatment: higher
